Test results as given in PMC10746786 (2023).

How the values were obtained:
PRRC2A = experiment: co-immunoprecipitation followed by mass spectrometry; conditions: FLAG-tagged EIF4G2 transfected into HEK293T cells; corrected for EIF4G2 levels in IP; read off a plot
PRRC2B = experiment: as above; conditions: FLAG-tagged EIF4G2 transfected into HEK293T cells; corrected for EIF4G2 levels in IP; read off a plot

| Substance | ratio to parent (PRRC2A) | ratio to parent (PRRC2B) |
| --- | --- | --- |
| FLAG-tagged EIF4G2 WT (from UniProt P78344) R165C | 3 | – |
| FLAG-tagged EIF4G2 WT (from UniProt P78344) R178Q | 3 | 2.3 |
